Like-named read-outs stand apart in the source and are kept apart here.
Tests used:
[1] = cited from earlier work
[2] = test system: embolic middle cerebral artery occlusion (eMCAO)
Protocol: Nerinetide (7.6 mg/kg) was administered as an intravenous bolus injection either 30 minutes before, or simultaneously with, the onset of a 60-minute infusion of rt-PA (5.4 mg/kg with a 10% bolus followed by 90% over 60 minutes). […] Experimental timeline. […] Hemispheric Infarct volume measurements 24 hours after eMCAo. […] Percentage of hemispheric brain swelling 24 hours after eMCAo and (D). Neurological scores 24 hours after eMCAo. Treatments were administered intravenously at the times indicated in (A). Bars represent mean±SD, with all individual data points plotted. Significant differences (in B) and (in C) are indicated with an asterisk when compared to the control group/nerinetide alone or with a number sign when compare to the thrombolytic agent (one-way ANOVA post hoc Tukey's correction for multiple comparisons test, *P<0.01 or #P <0.01, respectively) N=12-15 animals/group. Significant differences (in D) are indicated with an asterisk when compared to the control group/nerinetide alone or with a number sign when compare to the thrombolytic agent (Kruskal-Wallis analysis of variance on ranks with a post-hoc Dunn's correction for multiple comparisons test, *P<0.01 or #P<0.01, respectively).
To test this, male Sprague-Dawley rats (10-12 weeks old; 270-310 g; Charles River, Montreal, QC, Canada) were subjected to embolic middle cerebral artery occlusion (eMCAO), produced by the introduction of an autologous blood thrombus into the middle cerebral artery. Reperfusion was achieved by treatment with intravenous alteplase at a total dose of 5.4 mg/kg beginning at 90 minutes after ischemia onset. Alteplase was administered using the human injection protocol in which 10% of the total dose is given as a bolus, with the remainder 90% of the dose being given over a 60-minute infusion. The dose of alteplase was 6 times the human dose, in anticipation that the rat fibrinolytic system may be less sensitive to human recombinant tPA. […] Nerinetide was administered either 30 minutes prior to, or concurrently with, the start of the alteplase administration (FIG. 7A) at a dose of 7.6 mg/kg. […] Infarct volumes, hemispheric swelling and neurological scores were evaluated at 24 hours.

[3] = test system: Tat-NR2B9c

alteplase [reference compound]
plasma half-life in human plasma ([1]; in vivo): about five | reduction of infarction volume ([2]; alteplase alone 5.4 mg/kg given at 60 min after eMCAO): 26% | reduction of infarction volume ([2]; alteplase alone 5.4 mg/kg given at 90 minutes after eMCAO): 18% | mortality in pilot studies ([2]; rat, alteplase 10x human dose, hemorrhagic conversions of strokes): unacceptable mortality rates

plasmin
cleavage of nerinetide by plasmin, LC/MS of fragments after incubation in PBS at 37 C [3]: Cleavage products consistent with these sites of cleavage were observed after incubating nerinetide (18 mg/mL) with plasmin (1 mg/mL) in phosphate-buffered saline at 37 °C and analyzing the samples by LC/MS

B1: Plasmin: serine protease activated by thrombolytics to dissolve fibrin blood clots; cleaves nerinetide (protein, UniProt P00747 20-580; P00747 581-810, looked up)
Plasmin heavy chain A: EPLDDYVNTQGASLFSVTKKQLGAGSIEECAAKCEEDEEFTCRAFQYHSKEQQCVIMAENRKSSIIIRMRDVVLFEKKVYLSECKTGNGKNYRGTMSKTKNGITCQKWSSTSPHRPRFSPATHPSEGLEENYCRNPDNDPQGPWCYTTDPEKRYDYCDILECEEECMHCSGENYDGKISKTMSGLECQAWDSQSPHAHGYIPSKFPNKNLKKNYCRNPDRELRPWCFTTDPNKRWELCDIPRCTTPPPSSGPTYQCLKGTGENYRGNVAVTVSGHTCQHWSAQTPHTHNRTPENFPCKNLDENYCRNPDGKRAPWCHTTNSQVRWEYCKIPSCDSSPVSTEQLAPTAPPELTPVVQDCYHGDGQSYRGTSSTTTTGKKCQSWSSMTPHRHQKTPENYPNAGLTMNYCRNPDADKGPWCFTTDPSVRWEYCNLKKCSGTEASVVAPPPVVLLPDVETPSEEDCMFGNGKGYRGKRATTVTGTPCQDWAAQEPHRHSIFTPETNPRAGLEKNYCRNPDGDVGGPWCYTTNPRKLYDYCDVPQCAAPSFDCGKPQVEPKKCPGR
Plasmin light chain B: VVGGCVAHPHSWPWQVSLRTRFGMHFCGGTLISPEWVLTAAHCLEKSPRPSSYKVILGAHQEVNLEPHVQEIEVSRLFLEPTRKDIALLKLSSPAVITDKVIPACLPSPNYVVADRTECFITGWGETQGTFGAGLLKEAQLPVIENKVCNRYEFLNGRVQSTELCAGHLAGGTDSCQGDSGGPLVCFEKDKYILQGVTSWGLGCARPNKPGVYVRVSRFVTWIEGVMRNN
modifications: Plasmin
notes: cleaves nerinetide
half-life in human plasma ([1]; has been reported): 4 to 8 h

Source: patent US20230285504A1, “INHIBITION OF REPERFUSION INJURY WITH A PSD-95 INHIBITOR” (NONO INC., priority 2020, published 2023)
